Earlier results in PMC8463877.

How the values were obtained:
[1] = target: Aβ42 fibrils Aβ1-42 (Homo sapiens) (UniProt P05067)
[2] = target: apoC-II fibrils (Homo sapiens) (UniProt P02655)
apoC-II fibrils (Homo sapiens), sequence (P02655 23-101): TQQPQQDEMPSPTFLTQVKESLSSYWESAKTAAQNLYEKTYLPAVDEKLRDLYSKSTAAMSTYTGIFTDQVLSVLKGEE

αB-crystallin, sequence (P02511 whole entry): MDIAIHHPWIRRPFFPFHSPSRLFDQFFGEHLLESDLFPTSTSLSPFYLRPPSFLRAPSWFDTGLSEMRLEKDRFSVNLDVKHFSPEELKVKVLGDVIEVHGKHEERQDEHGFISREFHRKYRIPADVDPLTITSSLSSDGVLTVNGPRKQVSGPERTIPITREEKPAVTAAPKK
Aβ42 fibrils Aβ1-42 (Homo sapiens), sequence (P05067 1-42): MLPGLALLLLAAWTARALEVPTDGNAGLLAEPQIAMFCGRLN

- Kd [1]: 2.1 µM
- Kd [2]: 5.4 µM
Substance: αB-crystallin (from UniProt P02511)
